Results taken from US20200147199A1 (published 2020).

Each binder was assayed against ZIKV E Domain III (ZEDIII), polyhistidine-AviTag, produced in HEK-293-6E cells (assay: ELISA).

| Binder | EC50 [µg/mL] |
| --- | --- |
| Z004 (MEX18_89) (antibody, V domains shown) VH: EVQLLESGGGLVQPGGSLRLTCATSGFTFRDYAMSWVRQAPGKGLEWVSSYSGIDDSTYYADSVKGRFTISRDNSKSTLSLHMNSLRAEDSALYFCAKDRGPRGVGELFDSWGQGTLVTVSS VL: DIQMTQSPSTLSASVGDRVTITCRASQSISKWLAWYQQKPGKAPKLLIYTTSTLKSGVPSRFSGSGSGTEFTLTISSLQPDDFATYYCQHFYSVPWTFGQGTKVEIK | 0.0237 |
| Z001 (MEX18_21) (antibody, V domains shown) VH: EVQLLESGGGLVQPGGSRRLSCATSGFSFDTYAMSWLRQAPGKGLEWVSSFSGLDDSTYYADSVKGRFTISRDNSKNTLYLQMNSLRAEDTAIYYCAKDRGPRGIGELFDFWGQGTLVTVSS VL: DIQMTQSPSTLSASVGDRVTITCRASQSISRWLAWYQQKPGKAPKLLIYKTSTLKSEVPSRFSGSGSGTEFTLTISSLQPDDFATYYCQHFHSVPWTFGQGTKVEIK | 0.0206 |
| Z028 (MEX84_p4-53) (antibody, V domains shown) VH: EVQLLESGGGLVQPGGSLRLSCAASGFTFSAYAMSWVRQAPGKGLEWVSSINGHSDSTYFADSVKGRFTISRDNSKNTLYLQMNSLRAEDTALYYCAKDRLREGIGELFHSWGQGTLVTVSS VL: DIQMTQSPSTLSASIGDRVTITCRASQSITPWLAWYQQKPGKAPKFLIYQTSILESGVPSRFSGSGSGTEFTLTISSLQPDDFATYYCQHYHSYPWTFGQGTKVEIK | 0.0371 |
| Z014 (antibody, V domains shown) VH: EVQLLESGGDLVQPGGSLRLSCAASGFTFSSYGMSWVRQAPGKGLEWVSSISGFDPSTYYADSVRGRFTIARDNSKNTLYLQMKSLRVEDTAIYYCAKDRLVRGFGEVLDSWGQGTLVTVSS VL: DIQMTQSPSSLSASVGDRVTITCRASQGISNYLAWYQQKPREVPKLLIYAASTLHSGVPSRFSGSGSGTDFTLTISGLQPEDVATYYCQKYNSVPWTFGQGTKVEIK | 0.106 |
| Z042 (antibody, V domains shown) VH: QVQLQESGPGLVKPSETLSLSCTVSSGSISNYYWNWIRQPPGKGLEWIGYIYYSGSISYNPSLKSRVTISVDTSKNQLSLKLNSVTAADTAVYYCARGPDNRYWGQGTLVTVSS VL: EIVMTQSPATLSVSPGERVTLSCRASQSVSYNLAWHQQKPGQAPRLLIYGASTRATGIPARFSGSGSGTEFTLTISNMQSEDFAVYYCQQYNNWPPVFTFGPGTKVDIK | 0.0586 |
| Z024 (antibody, V domains shown) VH: EVQLVQSGAEVRKPGESLRISCKTSGYTFTSHWVAWVRQMPGKGLEWMGIIYPGDSDTRYSPSFQGQISISADKSINTAYLQWSSLKASDTGIYYCARHDGRGYCSPTRCFFSGMDVWGQGTTVTVSS VL: DIQLTQSPSSLSASVGDRVTITCRASQSISNYLNWYQQKPGKAPNLLIYAASSLQSGVPSRFSGSGSGTDFTLTISSLQPEDYAIYYCQQTDRTPLTFGQGTKVEIK | > 4 |
| Z018 (antibody, V domains shown) VH: QVQLVQSGPGVKKPGASVKVSCKASGYIFSDYYILWVRQAPGQGLEYMGWMNPISGFTHYAQNFQGRVTMTRDTSISTAYMELTRLASDDTAVYYCARGGRINSPLGFDPWGQGTLVTVSS VL: EIVLTQSPATLSLSPGERATLSCRASQSISTFSLAWYQQKFGQAPRLLIYGASSRATGIPDRFSGSGSGTDFTLTISRLEPEDFAVYYCQQYVSSPLTFGGGTKVEIK | 0.0742 |
| Z039 (antibody, V domains shown) VH: EVQLLESGGGLVQPGGSLRLSCAASGYIFDNYAMSWVRQAPGKGLEWVSYINGGGYGTDYADSVKGRFTISRDNSKRILYLQMNSLRVGDTAVYYCAKSPYVGGYGLPGDSWGQGTLVTVSS VL: EIVLTQSPGTLSLSPGERATLSCRASQTIFFNYLAWYQKKPGQAPRLLVHGASTRATGIPDRFSGSGSGTDFTLTINSLDPEDFAVYYCQQYGDSPPTFGGGTKVEIK | 0.0885 |
| Z043 (antibody, V domains shown) VH: QVQLVQSGAEVKKPGASVKVSCKTSGYTFTSYYMNWVRQAPGQGLEWMGIIKPSDGSTNYAQKFQGRVTMTRDTSTSTVYMELRSLRSEDTAVYYCGRDSKGWLQLRGDIDYWGQGTLVTVSS VL: QSALTQPASVSGSPGQSITISCAGTSSDVGNYNLVSWYQQHPGKAPKLLIYEVSKRPSGVSNRFSGSKSGNTASLTISGLQAEDEADYYCCSYAGSSTYVFGTGTEVTVL | 0.188 |
| Z035 (BRA112_71) (antibody, V domains shown) VH: EVQLLESGGGLIQPGGSLRLSCAASGFTFSSYAMSWVRQAPGKGLEWVSGISGSGGASDNGASRYYADSVKGRFSISRDNSKNTVYLQMNSLRAEDTAVYYCAKDRLSGGFGELFQKWGQGTLVTVSS VL: DIQMTQSPSTLAASVGDRVTITCRASQNINSWLAWYQQKPGKAPKFLIYKASTLESGAPSRFSGSGSGTEFTLTISSLQPDDFATYYCQHYYSYPYTFGQGTKVEIK | 0.0284 |
| Z038 (BRA12_2) (antibody, V domains shown) VH: EVQLLESGGGLVQPGGSLRLSCEASGFTFSNYAMNWVRQAPGKGLEWVSTLGATDNSGDSTYYVESAKGRFTISRDNSKNTLYLQMNSLRVEDTAVYFCAKDRTGNIGAGTGYFDKWGQGTLVTVSS VL: DIQMTQSPSTLSASVGDRVTITCRASHRISGWLAWYQQKPGKAPKLLIYQASGLESGVPSRFSGSGYGTEFTLTISSLQADDFATYYCQQYNNYPWTFGQGTKVEIK | 0.0581 |
| Z006 (MEX105_42) (antibody, V domains shown) VH: EVQLLESGGGLVQPGGSLRLSCAASGFTFKNYAMAWVRQAPGKGLEWVSLLYNSEESTYYADSVKGRFTISRDNSKNTLFLQMNRLRVEDTAVYFCVRDRSNGWSSINLWGRGTLVTVSS VL: DIQMTQSPSTLSASVGDRVTMTCRASQTISGWLAWYQQKPGKAPKLLIYQASRLESGIPSRFSGSGSGTEFTLTISSLQPDDVATYYCQQYSTFWTFGLGTKVEIK | 0.0351 |
| Z010 (MEX105_88) (antibody, V domains shown) VH: EVQLLESGGGLVQPGGSLRLSCAASGFTFSNYAMAWVRQAPGKGLEWVSLIYSGDDSTYYADFVKGRFTISRHNSKNTLSLQMNSLRAEDTAIYYCVKDRGTGWSSIVHWGQGTLVTVSS VL: DIQMTQSPSTLSASVGDRVTITCRASQTISNWLAWYQQKPGKAPKLLIYQASSLESGVPSRFSGSGSGTEFTLTISSLQPDDFATYYCQQYSTYWTFGQGTKVEIK | > 0.4 |
| Z041 (antibody, V domains shown) VH: QVQLVQSGAEVKKPGSSVRLSCKASGGSYSTYAISWVRQAPGQGLEWMGRIIPSLGKTHLAQKFQGRVTFTADESTTTVYMILSSLKSEDTALYYCATPDWQYSSAYSLDHWGQGTLVTVSS VL: not shown | 0.218 |
| Z021 (MEX84_p4-23) (antibody, V domains shown) VH: QVQLQESGPGLVKPSETLSLTCTVSGGSIDTYYWSWIRQTPGKGLEWIGCFYYSVDNHFNPSLESRVTISVDTSKNQFSLKMTSMTASDTAVYYCARNQPGGRAFDYWGPGTLVTVSS VL: EIVLTQSPATLSLSPGQRATLSCRASQSVSNYFAWYQQKPGQAPRLLIYDTSKRATGTPARFSGSGSGTDFTLTISSLEPEDFAVYYCQERNNWPLTWTFGLGTKVEIK | 0.0554 |
| Z031 (BRA112_46) (antibody, V domains shown) VH: EVQLLESGGGLVQPGGSLRLSCVASGFTFGSYGMAWVRQAPGKGLEWISSISSIDPSTYYADSVKGRFTVSRDNSENTLYLHMSSLKVEDTAVYFCAKDRLNGGFGELFASWGQGTLVTVSS VL: DIQMTQSPSTLSASVGDSVTITCRASQSISSWLAWYQQKPGKAPKFLIHKASSLESGIPSRFSGSGSGTEFTLTINNLQPDDFATYYCQHYHSYPWTFGQGTKVEIK | 0.0341 |
| Z037 (antibody, V domains shown) VH: QVQLQESGPGLVKPSETLSLTCSVSGYFISSGHYWGWIRQSPGKGLEWIASIYQSGSKFQTGNTYYNPSLESRVTISMDTSKNQFSLKLSSVTAADTAVYFCARDARSRSWDRTGFFGPWGQGILVTVSS VL: EIVLTQSPGTLSLSPGERATLSCRASQSLSSSFLAWYQQKPGQSPRLLIYGTSSRDTGIPDRFSGSGSGTDFTLTISRLEPEDSAVYYCQQYGSSWGTFGQGTKLEIK | > 0.4 |
| Z012 (antibody, V domains shown) VH: QVQLVQSGAEVKKSGASVKVSCKASGYSFTTNYIHWVRQAPGQGPEWMGIINPRGGSTTYAQKFQGRVLMTSDTSTSTVYMELSSLRSEDRAVYYCARGKNHQTTVAVLSWYYGMDVWGQGTTVTVSS VL: DIQMTQSPSSVSASVGDRVTITCRASQGISSWLAWYQQKPGKAPKLLISAASSLQSGVPSRFSGSGSGTDFTLTISNLQPEDFATYFCQQANSFPYTFGQGTKLEIK | 0.2 |
